In PMC6051341:

Assays:
[1] = target: ΔM-N L-selectin–GFP (human) (UniProt P14151); assay: FRET or BRET; FLIM measurement of FRET; THP-1 cells perfused over TNF-activated HUVECs, fixed in 4% PFA at 6 min (early TEM); optical section below the endothelium (base, transmigrated pseudopods)
[2] = target: ΔM-N L-selectin–GFP (human) (UniProt P14151); assay: FRET or BRET; FLIM measurement of FRET between GFP (donor, on L-selectin) and RFP (on the ERM protein); unchallenged THP-1 cells seeded onto poly-L-lysine-coated coverslips for 10 min at 37°C, fixed
[3] = target: ΔM-N L-selectin–GFP (human) (UniProt P14151); assay: FRET or BRET; FLIM measurement of FRET; THP-1 cells perfused over TNF-activated HUVECs, fixed in 4% PFA at 6 min (early TEM); optical section above the endothelium (top, non-transmigrated uropods)
[4] = target: ΔM-N L-selectin–GFP (human) (UniProt P14151); assay: FRET or BRET; FLIM measurement of FRET; THP-1 cells perfused over TNF-activated HUVECs, fixed in 4% PFA at 25 min (late TEM); optical section below the endothelium (base, transmigrated pseudopods)
[5] = target: ΔM-N L-selectin–GFP (human) (UniProt P14151); assay: FRET or BRET; FLIM measurement of FRET; THP-1 cells perfused over TNF-activated HUVECs, fixed in 4% PFA at 25 min (late TEM); optical section above the endothelium (top, non-transmigrated uropods)

UniProt P14151, sequence (P14151 39-372, stated change not applied): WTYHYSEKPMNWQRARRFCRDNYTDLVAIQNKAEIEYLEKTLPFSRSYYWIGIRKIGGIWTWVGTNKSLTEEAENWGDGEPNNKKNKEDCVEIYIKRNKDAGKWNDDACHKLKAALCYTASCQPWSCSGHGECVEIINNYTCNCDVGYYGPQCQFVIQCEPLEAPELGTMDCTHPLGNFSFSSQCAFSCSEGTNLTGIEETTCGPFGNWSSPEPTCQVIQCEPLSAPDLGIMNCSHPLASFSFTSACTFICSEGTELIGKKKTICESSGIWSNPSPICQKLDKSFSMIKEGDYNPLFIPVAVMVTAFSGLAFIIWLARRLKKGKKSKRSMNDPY

FRET efficiency (pseudopods, 6 min) [1] [%]	fold FRET efficiency against moesin with the same L-selectin (unchallenged cells) [2] [fold]	FRET efficiency (uropods, 6 min) [3] [%]	FRET efficiency (pseudopods, 25 min) [4] [%]	FRET efficiency (uropods, 25 min) [5] [%]	Substance
7.1	3.2	6.5	6.5	7	ezrin–RFP (from UniProt P15311 1-586) (natural protein)
2.4		2.7	4.2	2	moesin–RFP (from UniProt P26041 1-577) (natural protein)
